From the supplement of paper PMC10065799, “High-throughput profiling of sequence recognition by tyrosine kinases and SH2 domains using bacterial peptide display” (eLife, 2023)

Each sequence was assayed on AncSZ (assay: phosphorylation enrichment, bacterial display (enrichment ratio); higher = better substrate or ligand; peptides without Tyr show the background).
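Throughout, for SH2 binding enrichment of the phosphorylated peptide, bacterial display: peptide library displayed on the E. coli surface as eCPX fusions, selected cells deep-sequenced, score is each peptide's frequency after selection divided by its frequency in the input.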
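Throughout, for phosphorylation enrichment, bacterial display: 11-residue human phosphosite peptides and single-mutation variants displayed on the E. coli surface, counted by deep sequencing, each peptide's frequency after selection divided by its frequency in the unselected input library; frequency after pTyr selection over input frequency; kinase dosed for 20-30% of maximal phosphorylation in three min.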

| Sequence | phosphorylation enrichment |
| --- | --- |
| FRNSLYAPDYS [FAM92A_Y226] | 0.723 |
| IEPGIYIPEDD [XPNPEP3_Y455] | 1.23 |
| QTPVLYAMLYH [MPZ_Y220_D224Y] | 1.1 |
| RGDCMYASLLG [AR_Y269_P271S] | 1.25 |
| EWLRRYLENGK [HLA-A_Y195] | 0.691 |
| RYLKDYGEFEV [GINS1_Y156_C152Y] | 1.75 |
| QKPLGYFRVNL [GALE_Y104_D103G_YF] | 1.2 |
| TDEYEYDELIV [TGM1_Y136] | 1.3 |
| PVQAAYPKVVA [HBB_Y131_Q132P] | 0.706 |
| GRSTYYWPRPR [GAGE12J_Y10] | 0.697 |
| IMAFFYMCDSA [CASD1_Y382_R386S_YF] | 1.44 |
| IPGGIYDADLN [CST4_Y35] | 1.24 |
| MARDISRASFF [ALK_Y1278_Y1278S_YF] | 0.626 |
| GTSLIYWTLFT [G6PC3_Y214] | 1.82 |
| TSFSGYRFHRH [NKAPL_Y94_YF] | 0.558 |
| MHYSNYVSKGS [PDGFRA_Y849_D846Y] | 0.617 |
| NAPNSYGRRLI [CDKN2A_Y44_P48L] | 0.627 |

| Sequence | phosphorylation enrichment |
| --- | --- |
| NHFKIHNLCAE [PTEN_Y68_Y68H_YF] | 0.58 |
| FPPISYLNAIS [MVD_Y276] | 0.813 |
| YRDALYKFIVD [PHEX_Y250_M253I] | 1.08 |
| KIVFVYVKKRS [DNAI2_Y7_E2K_YF] | 1.06 |
| DTLMEYLENPK [CYCS_Y68] | 1.51 |
| LVTRSYLLGNS [LMNA_Y646] | 1.37 |
| MIRSAYALGGL [CPS1_Y590] | 0.54 |
| GLRFGYGGLGG [KRTAP20-2_Y15_V17G_YF] | 0.655 |
| EKSREYDRLFE [PIK3R1_Y463_YF] | 0.929 |
| YSKTQYNQVPR [CXADR_Y318_S323R] | 0.531 |
| LPIQTYSALNF [DES_Y423] | 1.01 |
| NGSKAYAYVHF [PABPC5_Y147_G146A] | 1.06 |
| INQGPYENRSV [ATP6V1B1_Y462] | 0.558 |
| GSRGKYSSGFC [ATM_Y332_R337C] | 0.495 |
| KGEDFYSVTCH [FHL1_Y149_C150S] | 1.47 |
| ILQSMYGCDVG [HLA-B_Y123_T118I] | 0.816 |

What follows are sequences tested against c-Src SH2 (assay: SH2 binding enrichment of the phosphorylated peptide, bacterial display (enrichment ratio); higher = better substrate or ligand; peptides without Tyr show the background).

| Sequence | SH2 binding enrichment |
| --- | --- |
| FRNSLYAPDYS [FAM92A_Y226] | 0.568 |
| IEPGIYIPEDD [XPNPEP3_Y455] | 0.454 |
| QTPVLYAMLYH [MPZ_Y220_D224Y] | 0.44 |
| RGDCMYASLLG [AR_Y269_P271S] | 1.12 |
| EWLRRYLENGK [HLA-A_Y195] | 0.522 |
| RYLKDYGEFEV [GINS1_Y156_C152Y] | 0.593 |
| QKPLGYFRVNL [GALE_Y104_D103G_YF] | 1.09 |
| TDEYEYDELIV [TGM1_Y136] | 0.786 |
| PVQAAYPKVVA [HBB_Y131_Q132P] | 0.386 |
| GRSTYYWPRPR [GAGE12J_Y10] | 0.419 |
| IMAFFYMCDSA [CASD1_Y382_R386S_YF] | 0.551 |
| IPGGIYDADLN [CST4_Y35] | 0.823 |
| MARDISRASFF [ALK_Y1278_Y1278S_YF] | 0.454 |
| GTSLIYWTLFT [G6PC3_Y214] | 0.457 |
| TSFSGYRFHRH [NKAPL_Y94_YF] | 0.942 |
| MHYSNYVSKGS [PDGFRA_Y849_D846Y] | 0.799 |
| NAPNSYGRRLI [CDKN2A_Y44_P48L] | 0.332 |

| Sequence | SH2 binding enrichment |
| --- | --- |
| NHFKIHNLCAE [PTEN_Y68_Y68H_YF] | 0.513 |
| FPPISYLNAIS [MVD_Y276] | 0.491 |
| YRDALYKFIVD [PHEX_Y250_M253I] | 0.683 |
| KIVFVYVKKRS [DNAI2_Y7_E2K_YF] | 0.856 |
| DTLMEYLENPK [CYCS_Y68] | 0.502 |
| LVTRSYLLGNS [LMNA_Y646] | 0.444 |
| MIRSAYALGGL [CPS1_Y590] | 0.46 |
| GLRFGYGGLGG [KRTAP20-2_Y15_V17G_YF] | 0.593 |
| EKSREYDRLFE [PIK3R1_Y463_YF] | 13.5 |
| YSKTQYNQVPR [CXADR_Y318_S323R] | 0.589 |
| LPIQTYSALNF [DES_Y423] | 1.08 |
| NGSKAYAYVHF [PABPC5_Y147_G146A] | 6.01 |
| INQGPYENRSV [ATP6V1B1_Y462] | 0.532 |
| GSRGKYSSGFC [ATM_Y332_R337C] | 0.938 |
| KGEDFYSVTCH [FHL1_Y149_C150S] | 0.47 |
| ILQSMYGCDVG [HLA-B_Y123_T118I] | 0.402 |

Each sequence was assayed against SHP2-C SH2 in the same assay as above.

| Sequence | SH2 binding enrichment |
| --- | --- |
| FRNSLYAPDYS [FAM92A_Y226] | 0.754 |
| IEPGIYIPEDD [XPNPEP3_Y455] | 0.819 |
| QTPVLYAMLYH [MPZ_Y220_D224Y] | 1.05 |
| RGDCMYASLLG [AR_Y269_P271S] | 1.99 |
| EWLRRYLENGK [HLA-A_Y195] | 0.757 |
| RYLKDYGEFEV [GINS1_Y156_C152Y] | 1.37 |
| QKPLGYFRVNL [GALE_Y104_D103G_YF] | 1.36 |
| TDEYEYDELIV [TGM1_Y136] | 0.761 |
| PVQAAYPKVVA [HBB_Y131_Q132P] | 0.697 |
| GRSTYYWPRPR [GAGE12J_Y10] | 0.386 |
| IMAFFYMCDSA [CASD1_Y382_R386S_YF] | 0.725 |
| IPGGIYDADLN [CST4_Y35] | 0.876 |
| MARDISRASFF [ALK_Y1278_Y1278S_YF] | 0.716 |
| GTSLIYWTLFT [G6PC3_Y214] | 0.652 |
| TSFSGYRFHRH [NKAPL_Y94_YF] | 1.01 |
| MHYSNYVSKGS [PDGFRA_Y849_D846Y] | 0.78 |
| NAPNSYGRRLI [CDKN2A_Y44_P48L] | 0.32 |

| Sequence | SH2 binding enrichment |
| --- | --- |
| NHFKIHNLCAE [PTEN_Y68_Y68H_YF] | 0.751 |
| FPPISYLNAIS [MVD_Y276] | 0.771 |
| YRDALYKFIVD [PHEX_Y250_M253I] | 0.774 |
| KIVFVYVKKRS [DNAI2_Y7_E2K_YF] | 1.13 |
| DTLMEYLENPK [CYCS_Y68] | 0.872 |
| LVTRSYLLGNS [LMNA_Y646] | 0.633 |
| MIRSAYALGGL [CPS1_Y590] | 0.689 |
| GLRFGYGGLGG [KRTAP20-2_Y15_V17G_YF] | 0.612 |
| EKSREYDRLFE [PIK3R1_Y463_YF] | 0.991 |
| YSKTQYNQVPR [CXADR_Y318_S323R] | 0.533 |
| LPIQTYSALNF [DES_Y423] | 0.834 |
| NGSKAYAYVHF [PABPC5_Y147_G146A] | 18.8 |
| INQGPYENRSV [ATP6V1B1_Y462] | 0.643 |
| GSRGKYSSGFC [ATM_Y332_R337C] | 1.16 |
| KGEDFYSVTCH [FHL1_Y149_C150S] | 0.706 |
| ILQSMYGCDVG [HLA-B_Y123_T118I] | 0.566 |

The sequences below were run against Grb2 SH2 (UniProt P62993) in the same assay as above.
Sequence of Grb2 SH2 (P62993 whole entry, looked up): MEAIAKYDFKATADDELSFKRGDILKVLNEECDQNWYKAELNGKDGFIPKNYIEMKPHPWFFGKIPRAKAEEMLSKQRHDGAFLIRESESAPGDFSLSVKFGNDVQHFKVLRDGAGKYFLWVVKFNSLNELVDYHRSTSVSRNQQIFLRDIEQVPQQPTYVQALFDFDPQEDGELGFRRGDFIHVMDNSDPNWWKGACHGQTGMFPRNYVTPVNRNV

| Sequence | SH2 binding enrichment |
| --- | --- |
| FRNSLYAPDYS [FAM92A_Y226] | 0.79 |
| IEPGIYIPEDD [XPNPEP3_Y455] | 0.802 |
| QTPVLYAMLYH [MPZ_Y220_D224Y] | 0.917 |
| RGDCMYASLLG [AR_Y269_P271S] | 1.26 |
| EWLRRYLENGK [HLA-A_Y195] | 0.932 |
| RYLKDYGEFEV [GINS1_Y156_C152Y] | 0.972 |
| QKPLGYFRVNL [GALE_Y104_D103G_YF] | 1.56 |
| TDEYEYDELIV [TGM1_Y136] | 1.07 |
| PVQAAYPKVVA [HBB_Y131_Q132P] | 0.904 |
| GRSTYYWPRPR [GAGE12J_Y10] | 0.668 |
| IMAFFYMCDSA [CASD1_Y382_R386S_YF] | 1.1 |
| IPGGIYDADLN [CST4_Y35] | 0.991 |
| MARDISRASFF [ALK_Y1278_Y1278S_YF] | 1.06 |
| GTSLIYWTLFT [G6PC3_Y214] | 0.746 |
| TSFSGYRFHRH [NKAPL_Y94_YF] | 1.28 |
| MHYSNYVSKGS [PDGFRA_Y849_D846Y] | 1.34 |
| NAPNSYGRRLI [CDKN2A_Y44_P48L] | 0.897 |

| Sequence | SH2 binding enrichment |
| --- | --- |
| NHFKIHNLCAE [PTEN_Y68_Y68H_YF] | 1.04 |
| FPPISYLNAIS [MVD_Y276] | 0.668 |
| YRDALYKFIVD [PHEX_Y250_M253I] | 0.774 |
| KIVFVYVKKRS [DNAI2_Y7_E2K_YF] | 1.27 |
| DTLMEYLENPK [CYCS_Y68] | 0.915 |
| LVTRSYLLGNS [LMNA_Y646] | 0.836 |
| MIRSAYALGGL [CPS1_Y590] | 0.715 |
| GLRFGYGGLGG [KRTAP20-2_Y15_V17G_YF] | 1.05 |
| EKSREYDRLFE [PIK3R1_Y463_YF] | 0.809 |
| YSKTQYNQVPR [CXADR_Y318_S323R] | 0.974 |
| LPIQTYSALNF [DES_Y423] | 0.735 |
| NGSKAYAYVHF [PABPC5_Y147_G146A] | 0.903 |
| INQGPYENRSV [ATP6V1B1_Y462] | 1.2 |
| GSRGKYSSGFC [ATM_Y332_R337C] | 1.25 |
| KGEDFYSVTCH [FHL1_Y149_C150S] | 0.688 |
| ILQSMYGCDVG [HLA-B_Y123_T118I] | 0.818 |
